Experiments:
Assay in all cases: cell-based or functional assay
[1] = target: HIV-1 Env of pseudovirus 191084 B7-19 (HIV-1)
[2] = target: HIV-1 Env of pseudovirus THRO4156.18 (HIV-1)
[3] = target: HIV-1 Env of pseudovirus ZM135M.PL10a (HIV-1)
[4] = target: HIV-1 Env of pseudovirus 1394C9G1(Rev-) (HIV-1)
[5] = target: HIV-1 Env of pseudovirus T257-31 (HIV-1)
[6] = target: HIV-1 Env of pseudovirus CNE19 (HIV-1)
[7] = target: HIV-1 Env of pseudovirus Du172.17 (HIV-1)
[8] = target: HIV-1 Env of pseudovirus AC10.0.29 (HIV-1)
[9] = target: HIV-1 Env of pseudovirus 191955_A11 (HIV-1)
[10] = target: HIV-1 Env of pseudovirus CNE53 (HIV-1)
[11] = target: HIV-1 Env of pseudovirus ZM233M.PB6 (HIV-1)
[12] = target: HIV-1 Env of pseudovirus Du422.1 (HIV-1)
[13] = target: HIV-1 Env of pseudovirus C3347.c11 (HIV-1)
[14] = target: HIV-1 Env of pseudovirus 1054_07_TC4_1499 (HIV-1)
[15] = target: HIV-1 Env of pseudovirus 62357_14_D3_4589 (HIV-1)
[16] = target: HIV-1 Env of pseudovirus 6041.v3.c23 (HIV-1)
[17] = target: HIV-1 Env of pseudovirus CNE21 (HIV-1)
[18] = target: HIV-1 Env of pseudovirus Ce1176_A3 (HIV-1)
[19] = target: HIV-1 Env of pseudovirus P1981_C5_3 (HIV-1)
[20] = target: HIV-1 Env of pseudovirus SC422661.8 (HIV-1)
[21] = target: HIV-1 Env of pseudovirus 89-F1_2_25 (HIV-1)
[22] = target: HIV-1 Env of pseudovirus QH0692.42 (HIV-1)
[23] = target: HIV-1 Env of pseudovirus A07412M1.vrc12 (HIV-1)
[24] = target: HIV-1 Env of pseudovirus 3016.v5.c45 (HIV-1)
[25] = target: HIV-1 Env of pseudovirus BF1266.431a (HIV-1)
[26] = target: HIV-1 Env of pseudovirus Ce703010054_2A2 (HIV-1)
[27] = target: HIV-1 Env of pseudovirus ZM53M.PB12 (HIV-1)
[28] = target: HIV-1 Env of pseudovirus Q23.17 (HIV-1)
[29] = target: HIV-1 Env of pseudovirus ZM249M.PL1 (HIV-1)
[30] = target: HIV-1 Env of pseudovirus BJOX015000.11.5 (HIV-1)
[31] = target: HIV-1 Env of pseudovirus T250-4 (HIV-1)
[32] = target: HIV-1 Env of pseudovirus 620345.c01 (HIV-1)
[33] = target: HIV-1 Env of pseudovirus 928-28 (HIV-1)

B1: N49P22 (antibody, V domains shown)
V domain 1: HIQLLQSGPQVKKSGDTVRISCETSGYNFVDSRIHWVRQTPEKRLRWMGWINPLQGGVNYAPEFQGRIRMTRDTFIDTVYVDLSGLTPADTAYYYCARGIDGKSYPFHFWGHGTRVTVFS
V domain 2: RFALTQPASVSGSPGQTITITCAGGSVSWFHFPPGKTPRLIIYESSKRPSGVSPRFSGSQSGSTASLIISGLQSDDEGTYFCSILEFFGRGTLVTVLS
IC50 [1]: 0.343 µg/mL
IC80 [1]: 1.64 µg/mL
MPI [1]: 98
IC50 [2]: > 50 µg/mL
IC80 [2]: > 50 µg/mL
MPI [2]: 32
IC50 [3]: > 50 µg/mL
IC80 [3]: > 50 µg/mL
MPI [3]: 27
IC50 [4]: > 50 µg/mL
IC80 [4]: > 50 µg/mL
MPI [4]: 35
IC50 [5]: > 50 µg/mL
IC80 [5]: > 50 µg/mL
MPI [5]: 43
IC50 [6]: 0.873 µg/mL
IC80 [6]: 8.19 µg/mL
MPI [6]: 92
IC50 [7]: > 50 µg/mL
IC80 [7]: > 50 µg/mL
MPI [7]: 4
IC50 [8]: > 50 µg/mL
IC80 [8]: > 50 µg/mL
MPI [8]: 0
IC50 [9]: > 50 µg/mL
IC80 [9]: > 50 µg/mL
MPI [9]: 9
IC50 [10]: 0.779 µg/mL
IC80 [10]: 5.11 µg/mL
MPI [10]: 93
IC50 [11]: > 50 µg/mL
IC80 [11]: > 50 µg/mL
MPI [11]: 2
IC50 [12]: > 50 µg/mL
IC80 [12]: > 50 µg/mL
MPI [12]: 4
IC50 [13]: 1.18 µg/mL
IC80 [13]: 12.3 µg/mL
MPI [13]: 89
IC50 [14]: 0.654 µg/mL
IC80 [14]: 2.89 µg/mL
MPI [14]: 100
IC50 [15]: > 50 µg/mL
IC80 [15]: > 50 µg/mL
MPI [15]: 13
IC50 [16]: 7.55 µg/mL
IC80 [16]: > 50 µg/mL
MPI [16]: 66
IC50 [17]: > 50 µg/mL
IC80 [17]: > 50 µg/mL
MPI [17]: 0
IC50 [18]: > 50 µg/mL
IC80 [18]: > 50 µg/mL
MPI [18]: 23
IC50 [19]: > 50 µg/mL
IC80 [19]: > 50 µg/mL
MPI [19]: 48
IC50 [20]: 0.12 µg/mL
IC80 [20]: 0.544 µg/mL
MPI [20]: 100
IC50 [21]: > 50 µg/mL
IC80 [21]: > 50 µg/mL
MPI [21]: 10
IC50 [22]: 0.592 µg/mL
IC80 [22]: 2.02 µg/mL
MPI [22]: 100
IC50 [23]: 9.6 µg/mL
IC80 [23]: > 50 µg/mL
MPI [23]: 63
IC50 [24]: > 50 µg/mL
IC80 [24]: > 50 µg/mL
MPI [24]: 23
IC50 [25]: > 50 µg/mL
IC80 [25]: > 50 µg/mL
MPI [25]: 0
IC50 [26]: > 50 µg/mL
IC80 [26]: > 50 µg/mL
MPI [26]: 0
IC50 [27]: 1.2 µg/mL
IC80 [27]: 11.8 µg/mL
MPI [27]: 91
IC50 [28]: 0.321 µg/mL
IC80 [28]: 2.4 µg/mL
MPI [28]: 96
IC50 [29]: > 50 µg/mL
IC80 [29]: > 50 µg/mL
MPI [29]: 0
IC50 [30]: 1.26 µg/mL
IC80 [30]: 10.8 µg/mL
MPI [30]: 89
IC50 [31]: > 50 µg/mL
IC80 [31]: > 50 µg/mL
MPI [31]: 5
IC50 [32]: > 50 µg/mL
IC80 [32]: > 50 µg/mL
MPI [32]: 0
IC50 [33]: > 50 µg/mL
IC80 [33]: > 50 µg/mL
MPI [33]: 32

From US20230002480A1
